Measurements as given in PMC10397247.

Legend:
[1] = biological target: T1, 4H3843-bN; test: two-hybrid library CCNG1;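 also: natural log of median RNA to DNA barcode read ratio; higher means stronger binding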
T1 chain: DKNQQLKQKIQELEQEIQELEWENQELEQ

[2] = biological target: T2, 4H4001-bN; test: two-hybrid library CCNG1;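 also: natural log of median RNA to DNA barcode read ratio; higher means stronger binding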
T2 chain: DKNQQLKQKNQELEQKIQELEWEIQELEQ

[3] = biological target: T3, 4H462-bN; test: two-hybrid library CCNG1;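 also: natural log of median RNA to DNA barcode read ratio; higher means stronger binding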
T3 chain: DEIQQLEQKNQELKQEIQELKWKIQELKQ

[4] = biological target: T4, 4H568-bN; test: two-hybrid library CCNG1;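 also: natural log of median RNA to DNA barcode read ratio; higher means stronger binding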
T4 chain: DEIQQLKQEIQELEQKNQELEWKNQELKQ

[5] = biological target: T5, 4H607-bN; test: two-hybrid library CCNG1;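 also: natural log of median RNA to DNA barcode read ratio; higher means stronger binding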
T5 chain: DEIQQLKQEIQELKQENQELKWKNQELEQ

[6] = biological target: T6, 4H687-bN; test: two-hybrid library CCNG1;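 also: natural log of median RNA to DNA barcode read ratio; higher means stronger binding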
T6 chain: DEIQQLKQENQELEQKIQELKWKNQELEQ

[7] = biological target: T7, 4H72-bN; test: two-hybrid library CCNG1
T7 chain: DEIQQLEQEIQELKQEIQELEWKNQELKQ

[8] = biological target: T8, 4H797-bN; test: two-hybrid library CCNG1
T8 chain: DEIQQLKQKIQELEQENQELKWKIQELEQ

[9] = biological target: T9, 4H883-bN; test: two-hybrid library CCNG1
T9 chain: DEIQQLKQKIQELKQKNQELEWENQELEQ

[10] = biological target: T10, 4H918-bN; test: two-hybrid library CCNG1
T10 chain: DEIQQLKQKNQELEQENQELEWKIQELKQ

[11] = biological target: T11, 4H953-bN; test: two-hybrid library CCNG1
T11 chain: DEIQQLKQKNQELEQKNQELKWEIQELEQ

[12] = biological target: T12, 4H967-bN; test: two-hybrid library CCNG1
T12 chain: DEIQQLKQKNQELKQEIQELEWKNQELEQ

[13] = biological target: T13, APC3354-AA; test: two-hybrid library CCmax
T13 chain: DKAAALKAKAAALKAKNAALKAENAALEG

[14] = biological target: T14, APC3881-AA; test: two-hybrid library CCmax; settings: mean of both orientations
T14 chain: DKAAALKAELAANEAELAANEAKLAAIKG

[15] = biological target: T15, APC4100-AA; test: two-hybrid library CCmax; settings: mean of both orientations
T15 chain: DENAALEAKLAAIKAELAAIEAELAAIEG

[16] = biological target: T16, APC4336-AA; test: two-hybrid library CCmax; settings: mean of both orientations
T16 chain: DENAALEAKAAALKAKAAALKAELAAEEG

[17] = biological target: T17, APC5009-AA; test: two-hybrid library CCmax; settings: mean of both orientations
T17 chain: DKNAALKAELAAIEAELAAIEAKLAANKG

[18] = biological target: T18, APC542-AA; test: two-hybrid library CCmax; settings: mean of both orientations
T18 chain: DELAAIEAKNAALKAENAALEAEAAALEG

[19] = biological target: T19, APC5531-AA; test: two-hybrid library CCmax; settings: mean of both orientations
T19 chain: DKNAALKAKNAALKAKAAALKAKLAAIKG

[20] = biological target: T20, APC6088-AA; test: two-hybrid library CCmax; settings: mean of both orientations
T20 chain: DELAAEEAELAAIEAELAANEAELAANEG

[21] = biological target: T21, APC7524-AA; test: two-hybrid library CCmax; settings: mean of both orientations
T21 chain: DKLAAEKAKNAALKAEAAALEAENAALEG

[22] = biological target: T22, APC8401-AA; test: two-hybrid library CCmax; settings: mean of both orientations
T22 chain: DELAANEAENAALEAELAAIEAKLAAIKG

[23] = biological target: T23, APC8516-AA; test: two-hybrid library CCmax; settings: mean of both orientations
T23 chain: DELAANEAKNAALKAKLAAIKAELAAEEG

[24] = biological target: T24, APC9141-AA; test: two-hybrid library CCmax; settings: mean of both orientations
T24 chain: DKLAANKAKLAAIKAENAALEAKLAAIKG

[25] = biological target: T25, APC9182-AA; test: two-hybrid library CCmax; settings: mean of both orientations
T25 chain: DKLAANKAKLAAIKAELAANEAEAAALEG

[26] = biological target: T26, APC9291-AA; test: two-hybrid library CCmax; settings: mean of both orientations
T26 chain: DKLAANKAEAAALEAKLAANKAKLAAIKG

[27] = biological target: T27, APC9806-AA; test: two-hybrid library CCmax; settings: mean of both orientations
T27 chain: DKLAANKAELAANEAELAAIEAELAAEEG

B1: 4H3843-bN (peptide)
chain: DKNQQLKQKIQELEQEIQELEWENQELEQ
[1]
  interaction score: -1.58
[2]
  interaction score: -1.28
[3]
  interaction score: -0.816
[4]
  interaction score: -0.869
[5]
  interaction score: -1.31
[6]
  interaction score: -1.56
[7]
  interaction score: -1.71
[8]
  interaction score: -0.609
[9]
  interaction score: -0.63
[10]
  interaction score: -1.05
[11]
  interaction score: -2.09
[12]
  interaction score: -1.23

B2: APC3354-AA (peptide)
chain: DKAAALKAKAAALKAKNAALKAENAALEG
[13]
  interaction score: -1.59
[14]
  interaction score: -1.72
[15]
  interaction score: -1.66
[16]
  interaction score: -2.08
[17]
  interaction score: -1.49
[18]
  interaction score: -1.89
[19]
  interaction score: -1.92
[20]
  interaction score: -1.77
[21]
  interaction score: -1.71
[22]
  interaction score: -1.48
[23]
  interaction score: -1.98
[24]
  interaction score: -1.68
[25]
  interaction score: -1.72
[26]
  interaction score: -1.68
[27]
  interaction score: -1.33
